Laboratory results from patent US7138497 (CHIRON, dated 2006).

B1: 520C9 sFv single-chain binding protein (scFv)
scFv: EIQLVQSGPELKKPGETVKISCKASGYTFANYGMNWMKQAPGKGLKWMGWINTYTGQSTYADDFKERFAFSLETSATTAHLQINNLRNEDSATYFCARRFGFAYWGQGTLVSVSASISSSSGSSSSGSSSSGSDIQMTQSPSSLSASLGERVSLTCRASQDIGNSLTWLQQEPDGTIKRLIYATSSLDSGVPKRFSGSRSGSDYSLTISSLESEDFVVYYCLQYAIFPYTFGGGTNLEIKRAD
notes: also called biosynthetic 520C9 sFv
B2: Fab fragment of the 520C9 monoclonal antibody (Fab, V domains shown)
VH: EIQLVQSGPELKKPGETVKISCKASGYTFANYGMNWMKQAPGKGLKWMGWINTYTGQSTYADDFKERFAFSLETSATTAHLQINNLRNEDSATYFCARRFGFAYWGQGTLVSVSA
VL: DIQMTQSPSSLSASLGERVSLTCRASQDIGNSLTWLQQEPDGTIKRLIYATSSLDSGVPKRFSGSRSGSDYSLTISSLESEDFVVYYCLQYAIFPYTFGGGTNLEIK
notes: Fab of the parental murine monoclonal antibody 520C9; The limits of VH (1-115) are derived from the printed linker position; also called 520C9 Fab; parental 520C9 Fab fragment
B3: 741F8/26-10 (sFv')2 heterodimer (bispecific antibody)
scFv 1: MAEIQLVQSGPELKKPGETVKISCKASGYTFTNYGMNWVKQAPGKGLKWMGWINTNTGEPTYAEEFKGRFAFSLETSASTAYLQINNLKNEDTATYFCGRQFITYGGFANWGQGTLVTVSASSSSGSSSSGSSSSDIVMTQSPKFMSTSVGDRVSISCKASQDVSTAVAWYQQKPGQSPKLLIYWTSTRHTGVPDRFTGSGSGTDYTLTISSVQAEDLALHYCQQHYRVPYTFGGGTKLEIKRADGGGGC
scFv 2: MEVQLQQSGPELVKPGASVRMSCKSSGYIFTDFYMNWVRQSHGKSLDYIGYISPYSGVTGYNQKFKGKATLTVDKSSSTAYMELRSLTSEDSAVYYCAGSSGNKWAMDYWGHGASVTVSSSGSSSSGSSSSGSDVVMTQTPLSLPVSLGDQASISCRSSQSLVHSNGNTYLNWYLQKAGQSPKLLIYKVSNRFSGVPDRFSGSGSGTDFTLKISRVEAEDLGIYFCSQTTHVPPTFGGGTKLEIKRSGGGGC
modifications: C-terminal cysteine of the (Gly)4-Cys tail disulfide linked to the other chain
notes: Made by reacting 26-10 sFv'-TNB with reduced 741F8 sFv'; also called 741F8/26-10 heterodimer

Tests used:
[1] = target: T1, c-erbB-2 (extract of SK-Br-3 breast cancer cells coated on the plate) (UniProt P04626 23-1255); assay: competition ELISA, SK-Br-3 extract on plate, 520C9-HRP probe as competitor
T1 construct: Crude detergent extract of the cells, not purified protein; also called c-erbB-2 antigen
Method: In order to prepare c-erbB-2, SK-Br-3 breast cancer cells (Ring et al., 1989, Cancer Res. 49: 3070–3080), were harvested and resuspended in 10 mM NaCl, 0.5% Nonidet-P40, pH 8. Insoluble debris was removed by centrifugation and the extract filtered through 0.45 Millex HA and 0.2 Millex GV filters. 40µl of the extract was added to each well of a 96 well plate and incubated overnight at 37° C. The plates then were washed with PBS and non-specific binding sites blocked following the addition of PBS containing 1% skim milk by incubation for one hour at room temperature. The sFv and 520C9 Fab samples, diluted in PBS, were added to the wells and incubated for 30 mins at room temperature. A control containing only dilution buffer was also included.
In order to quantitate the reaction, 20µl of a 520C9-horseradish peroxidase (HRP) probe (Zymed Labs., South San Francisco, Calif.), diluted to 14 µl/ml in PBS containing 1% skim milk, was added to each well and incubated for one hour at room temperature. The plate was then washed four times with PBS, the peroxidase substrate added and incubated for 30 minutes at room temperature. The reaction was quenched with H_2SO_4 and the […] values measured.

[2] = target: T2, c-erbB-2 extracellular domain (ECD) with His6 peptide, attached to agarose beads (UniProt P04626 23-652, limits assumed); assay: affinity chromatography on c-erbB-2 ECD-agarose
T2 construct: extracellular domain; Expressed in CHO cells, purified by IMAC, coupled to agarose beads
Text: The refolded 26-10 sFv' polypeptide chains were purified by ouabain-Sepharose affinity chromatography, as described for the 26-10 sFv constructs (Huston, et. al., 1988, *Proc. Natl Acad. Sci. USA* 85; 5879–5883 and Tai, et al., 1990, *Biochem.* 29, 8024–[…], both of which are hereby incorporated by reference). The refolded 520C9 sFv polypeptide chain was similarly purified using a c-erbB-2-agarose affinity column. […] The buffer was then exchanged by dialysis. The c-erbB-2 affinity column preferably was prepared by linking the extracellular domain of c-erbB-2 onto agarose beads.

[3] = target: T2, c-erbB-2 extracellular domain (ECD) …; assay: affinity chromatography on c-erbB-2 ECD-agarose, eluted with 5M LiCl
Method: The (sFv')_2 heterodimers can be separated by a two step affinity chromatography procedure taking advantage of the bivalent nature of the dimer. For instance, during the purification of the 741F8/26-10 heterodimer the mixture initially was loaded onto an ouabain-Sepharose column, washed with a PBS, 1 M NaCl buffer, to remove any non-specifically adsorbed material, and rewashed with PBS to reduce the salt concentration. The reactive 26-10 sFv' species bound to the resin were eluted with 20 mM ouabain in PBS and the eluate dialyzed against PBS to remove the cardiac glycoside. The 741F8/26-10 heterodimers were then repurified on a c-erbB-2-agarose affinity column taking advantage of the ECD binding site in the heterodimer. […] Prior to use, the buffer was exchanged with PBS by dialysis.

Binder	binding result [1]	binding result [2]	binding result [3]
B1	binds	binds	
B2	binds		
B3			binds
